Measurements taken from US20090286243A1 (CEDARS SINAI MEDICAL CENTER, published 2009).
Positions count from the first letter of the chain named. In names and notes the source's numbering stands.

T1: wild type human Kv3.3 (KCNC3) voltage-gated potassium channel subunit (human, UniProt Q14003 1-757)
T1 sequence: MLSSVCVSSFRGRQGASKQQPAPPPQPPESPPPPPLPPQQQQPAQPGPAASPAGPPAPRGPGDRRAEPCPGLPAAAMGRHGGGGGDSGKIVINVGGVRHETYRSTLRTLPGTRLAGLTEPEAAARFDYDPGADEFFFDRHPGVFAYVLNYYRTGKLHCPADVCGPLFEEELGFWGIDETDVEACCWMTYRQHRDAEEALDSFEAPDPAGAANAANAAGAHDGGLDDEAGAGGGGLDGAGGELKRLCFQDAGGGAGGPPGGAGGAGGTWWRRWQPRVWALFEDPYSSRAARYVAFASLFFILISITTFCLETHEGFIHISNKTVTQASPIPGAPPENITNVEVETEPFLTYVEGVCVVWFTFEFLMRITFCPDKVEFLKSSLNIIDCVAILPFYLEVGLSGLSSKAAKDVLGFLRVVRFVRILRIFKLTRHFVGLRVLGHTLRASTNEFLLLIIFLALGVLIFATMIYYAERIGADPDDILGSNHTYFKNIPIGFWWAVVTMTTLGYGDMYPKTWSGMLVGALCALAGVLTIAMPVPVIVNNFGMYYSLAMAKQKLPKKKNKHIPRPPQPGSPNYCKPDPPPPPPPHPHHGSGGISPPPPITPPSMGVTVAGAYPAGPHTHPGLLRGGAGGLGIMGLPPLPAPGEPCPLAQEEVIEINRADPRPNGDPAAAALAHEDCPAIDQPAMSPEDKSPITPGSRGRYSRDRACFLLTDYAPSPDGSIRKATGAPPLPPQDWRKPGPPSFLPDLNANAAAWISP

B1: Kv3.3 R423H mutant subunit (other)
chain: T1 sequence with R423H
B2: Kv3.3 R366H mutant subunit (other)
chain: T1 sequence with R366H

Biological target: T1, wild type human Kv3.3 (KCNC3) …
Test: cell-based or functional assay

Binder | current amplitudes measured at +60 mV, 1:1 expression ratio of wild type and R423H, Xenopus oocytes | current amplitudes, 1:1 expression ratio of wild type and R366H, Xenopus oocytes
B1 | ~20 % of wild type expressed alone | –
B2 | – | ~50 % of wild type expressed alone
